Measurements as given in US20050085420A1, “Method of modulating apoptosis and compositions thereof” (priority 2003, published 2005).
Positions count from the first letter of the chain named. Names may count otherwise.

Key:
[1] = system: MEFs; test: G418 selection of mouse embryonic fibroblasts; type: cell-based; conditions: 0.3 mg/ml G418, 3 days
Procedure: vdac1 -/- and vdac2 -/- embryonic stem (ES) cells were described previously S. Wu, M. J. Sampson, W. K. Decker, W. J. Craigen, Biochim Biophys Acta 1452, 68-78. (1999). 129/SvEv derived ES cell clones with homozygous deletion of vdac2 alleles were microinjected into blastocysts from C57BL/6 female mice. Mouse embryonic fibroblasts derived from E13.5 day chimeric embryos were treated with 0.3 mg/ml G418 (GIBCO-BRL) at second passage for 5 days to select for vdac2 -/- cells. Normally, 100% of MEFs died at 3 days in the presence of 0.3 mg/ml G418. Deficiency of VDAC2 in cells following G418 selection was confirmed by an immunoblot developed with an anti-VDAC2 Ab.

[2] = target: T1, VDAC2 (endogenous, or untagged murine vdac2 re-expressed by retrovirus) (murine, UniProt Q60930 1-295); test: restatement of the co-immunoprecipitation result
T1 construct: In mitochondria or whole cells; also called Voltage-Dependent Anion Channel 2; protein X
T1 sequence (looked up): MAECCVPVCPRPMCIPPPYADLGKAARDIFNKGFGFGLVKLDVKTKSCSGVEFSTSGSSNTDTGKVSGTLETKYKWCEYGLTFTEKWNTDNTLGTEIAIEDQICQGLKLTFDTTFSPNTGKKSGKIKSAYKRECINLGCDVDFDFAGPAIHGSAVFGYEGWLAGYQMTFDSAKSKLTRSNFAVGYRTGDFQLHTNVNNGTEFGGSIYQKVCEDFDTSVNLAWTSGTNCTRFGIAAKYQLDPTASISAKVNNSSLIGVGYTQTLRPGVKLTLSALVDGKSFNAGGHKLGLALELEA

[3] = target: VDAC1 (endogenous) (mouse, UniProt Q60932-2 2-283, limits assumed); test: DSS crosslinking of vdac2-deficient ES cells, anti-BAK immunoblot
[4] = target: the molecule itself; test: Superdex 200 gel filtration of mitochondrial lysates in 2% CHAPS, anti-BAK immunoblot
Procedure: The chromatographic step of Superdex 200 (HR 10/30, Amersham-Pharmacia) was performed on an automatic fast protein liquid chromatography (FPLC) station (Amersham-Pharmacia) at 4° C. The column was equilibrated with buffer containing 2% CHAPS, 300 mM NaCl, 0.2 mM DTT, and 25 mM Hepes, pH 7.5 and calibrated with thyroglobulin (669 kD, Amersham-Pharmacia), ferritin (440 kD, Amersham-Pharmacia), catalase (232 kD, Amersham-Pharmacia), aldolase (158 kD, Amersham-Pharmacia), bovine serum albumin (66 kD, Calbiochem), and cytochrome c (14 kD, Sigma). 200 μl of mitochondrial lysates (1 mg/ml protein in the same buffer as above) was loaded onto the column, eluted at a flow rate of 0.3 ml/minute. Fractions of 0.6 ml were collected, precipitated by trichloroacetic acid, and analyzed by an immunoblot (fractions 16-31) developed with an anti-BAK Ab.

[5] = target: T2, N-terminal HA-tagged VDAC2 (murine, UniProt Q60930 1-295); test: anti-HA immunoprecipitation in 1% CHAPS or 0.2% NP40, anti-BIM immunoblot
T2 construct: also called HA-VDAC2; hemagglutinin (HA)-tagged version of VDAC2; not shown: N-terminal HA tag
T2 sequence (looked up): T1 sequence (looked up)
Description: Mitochondria isolated from wild-type MEFs or vdac2 -/- mouse embryonic fibroblasts (MEFS) with retroviral transduction of N-terminal HA-tagged VDAC2 were solubilized in either 1% CHAPS or 0.2% NP40 buffer, followed by anti-HA immunoprecipitation.

[6] = target: T3, VDAC2 (Mus musculus, UniProt Q60930); test: Anti-HA immunoprecipitation of HA-tagged VDAC2 with BH3-only molecules; type: binding; conditions: mitochondria, anti-HA immunoprecipitation, 1% CHAPS (or 0.2% NP40)
T3 construct: expressed in transfected cells; host or cells: vdac1 -/-, vdac3 -/- mouse fibroblasts; wt or vdac2 -/- MEFs; Bax, Bak doubly deficient MEFs (retrovirus pMIG)
T3 sequence (Q60930 1-295): T1 sequence (looked up)
Description: Murine vdac1, vdac2, N-terminal HA-tagged vdac2, N-terminal-HA tagged Bax or Bak, as well as wild type and mutant Bak (mBH1, W122A, G123E, R124A; mBH3, L75E) were cloned into the retroviral expression vector MSCV-IRES-GFP (pMIG). PcDNA3-tBID (wt and mutants) was described previously M. C. Wei et al., Genes Dev 14, 2060-71. (2000). Generation of amphotropic retroviruses and retroviral infection were described previously E. H. Cheng et al., Mol Cell 8, 705-11. (2001). Retroviral expression of each indicated protein was confirmed by immunoblot. […]
The strength of association between BIM-EL and VDAC2 was compared to the strength of the association, if any, between BIM-EL and BAK or BAX. Mitochondria isolated from Bax, Bak doubly deficient MEFs transduced with retrovirus expressing N-terminal HA-tagged BAX, BAK, or VDAC2 were solubilized in 1% CHAPS or 0.2% NP-40 buffer, followed by anti-HA immunoprecipitation. The immunoprecipitates were analyzed by an immunoblot developed with anti-BIM. […] These findings indicate that BH3-only competition for VDAC2 frees BAK, which, in the absence of its specific inhibitor VDAC2, is prone to auto-activating homo-oligomerization. […]

[7] = target: T2, N-terminal HA-tagged VDAC2; test: anti-HA immunoprecipitation in 1% CHAPS from Bax, Bak doubly deficient MEF mitochondria before or after etoposide, anti-PUMA immunoblot (FIG. 11B)
Procedure: For FIG. 11A, mitochondria isolated from vdac1 -/-, vdac3 -/- mouse fibroblasts with or without retroviral transduction of N-terminal HA-tagged VDAC2 were incubated with in vitro transcribed, translated PUMA protein at 30° C. for 30 min, followed by anti-HA immunoprecipitation in 1% CHAPS buffer. The immunoprecipitates were analyzed by an immunoblot developed with anti-PUMA. For FIG. 11B, mitochondria were isolated from Bax, Bak doubly deficient MEFs with or without retroviral transduction of N-terminal HA-tagged VDAC2 before or after etoposide treatment (10 μM) for 20 hours, followed by anti-HA immunoprecipitation in 1% CHAPS buffer. The immunoprecipitates were analyzed by an immunoblot developed with anti-PUMA (FIG. 11B, lower panel).

[8] = target: BCL-XL (in Bax, Bak doubly deficient MEFs) (mouse, UniProt Q64373-1 1-233); test: anti-HA co-immunoprecipitation in 1% CHAPS
[9] = target: T1, VDAC2 (endogenous, or untagged murine …); test: DSS crosslinking of reconstituted Bax, Bak doubly-deficient MEFs, anti-BAK immunoblot
[10] = target: T4, BAK (Mus musculus, UniProt O08734); test: Co-precipitation of endogenous BAK with HA-tagged VDAC2; type: binding; conditions: wt MEF mitochondria, CHAPS, anti-HA immunoprecipitation
T4 construct: endogenous in cells; host or cells: wt MEFs transduced with HA-VDAC2 retrovirus; mitochondria solubilized in 1% CHAPS or 0.2% NP-40
T4 sequence (O08734 2-209 limits assumed): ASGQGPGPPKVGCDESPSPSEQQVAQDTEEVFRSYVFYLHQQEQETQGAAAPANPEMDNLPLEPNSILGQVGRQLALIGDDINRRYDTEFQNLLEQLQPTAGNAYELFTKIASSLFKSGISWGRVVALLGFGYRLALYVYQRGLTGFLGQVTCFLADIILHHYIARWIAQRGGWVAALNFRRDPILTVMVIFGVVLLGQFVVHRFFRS
T4 sequence (Q60930 1-295 partner): T1 sequence (looked up)
Procedure: (§1) FIG. 2E is a photograph depicting mitochondria isolated from wt MEFs (upper panel) or Bax, Bak doubly deficient MEFs (lower panel), which were transduced with retrovirus expressing N-terminal HA-tagged VDAC2, BAK or BAX and were solubilized in either 1% CHAPS or 0.2% NP-40 buffer, followed by immunoprecipitation with an anti-HA antibody. The immunoprecipitates were analyzed by an immunoblot developed with anti-HA-Biotin, anti-BAK, anti-BAX, or anti-VDAC2 Abs as indicated.
(§2) An HA-tagged BAK, but not HA-tagged BAX co-precipitated endogenous VDAC2 (FIG. 2E).

[11] = target: T5, BAX (Mus musculus, UniProt Q07813); test: Co-precipitation of endogenous BAX with HA-tagged VDAC2; type: binding; conditions: wt MEF mitochondria, CHAPS, anti-HA immunoprecipitation
T5 construct: endogenous in cells; host or cells: wt MEFs transduced with HA-VDAC2 retrovirus; mitochondria solubilized in 1% CHAPS or 0.2% NP-40
Procedure: as §1, §2

VDAC1 (endogenous), sequence (Q60932 15-296 limits assumed): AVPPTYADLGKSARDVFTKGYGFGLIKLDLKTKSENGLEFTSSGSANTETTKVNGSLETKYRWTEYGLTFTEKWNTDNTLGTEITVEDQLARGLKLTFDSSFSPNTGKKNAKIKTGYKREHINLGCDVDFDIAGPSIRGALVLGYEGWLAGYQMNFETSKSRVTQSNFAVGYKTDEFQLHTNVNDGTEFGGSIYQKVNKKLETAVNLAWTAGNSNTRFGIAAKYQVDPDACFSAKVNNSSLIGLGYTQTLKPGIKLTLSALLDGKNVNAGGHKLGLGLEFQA
T5 sequence (Q07813 whole entry): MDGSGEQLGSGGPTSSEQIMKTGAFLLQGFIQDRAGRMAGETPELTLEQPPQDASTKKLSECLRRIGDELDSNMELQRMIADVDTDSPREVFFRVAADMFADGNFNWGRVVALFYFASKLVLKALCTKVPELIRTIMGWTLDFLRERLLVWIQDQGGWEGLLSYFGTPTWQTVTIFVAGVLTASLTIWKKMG
BCL-XL (in Bax, Bak doubly deficient MEFs), sequence (Q64373 whole entry): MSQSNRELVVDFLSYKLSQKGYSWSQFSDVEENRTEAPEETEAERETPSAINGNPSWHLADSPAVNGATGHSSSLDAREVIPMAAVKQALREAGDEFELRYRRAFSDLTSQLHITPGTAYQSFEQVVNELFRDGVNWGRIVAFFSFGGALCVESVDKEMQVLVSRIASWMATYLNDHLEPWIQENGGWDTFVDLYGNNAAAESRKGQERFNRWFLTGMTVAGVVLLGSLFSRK

Question: `CN[C@@H]1[C@@H](O)[C@@H](O[C@@H]2[C@@H](O)[C@H](O[C@H]3O[C@H]([C@@H](C)O)[C@@H](O)[C@H](O)[C@H]3N)[C@@H](N)C[C@H]2N)OC[C@]1(C)O` [G418] was tested. Which MEFs died [1] did it give?
Answer: 100%

B1: BAK (endogenous, or wild type Bak reconstituted by retrovirus) (other, murine, UniProt O08734 2-209, looked up)
chain: T4 sequence (O08734 2-209 limits assumed)
notes: Integral mitochondrial membrane protein, tested in mitochondria or whole cells; also called endogenous BAK; wt Bak
Question: Does B1 bind [2]?
Answer: binds

Question: Does B1 bind [3]?
Answer: no binding

Question: Does B1 bind [4]?
Answer: binds

B2: BIM-EL (endogenous) (other, mouse, UniProt O54918-1 1-196, looked up)
chain: MAKQPSDVSSECDREGGQLQPAERPPQLRPGAPTSLQTEPQGNPDGEGDRCPHGSPQGPLAPPASPGPFATRSPLFIFVRRSSLLSRSSSGYFSFDTDRSPAPMSCDKSTQTPSPPCQAFNHYLSAMASIRQSQEEPEDLRPEIRIAQELRRIGDEFNETYTRRVFANDYREAEDHPQMVILQLLRFIFRLVWRRH
notes: also called BH3-only molecule BIM-EL
Question: Does B2 bind [5]?
Answer: binds

B3: PUMA (endogenous, induced by etoposide) (other, mouse, UniProt Q99ML1 1-193, looked up)
chain: MARARQEGSSPEPVEGLARDSPRPFPLGRLMPSAVSCSLCEPGLPAAPAAPALLPAAYLCAPTAPPAVTAALGGPRWPGGHRSRPRGPRPDGPQPSLSPAQQHLESPVPSAPEALAGGPTQAAPGVRVEEEEWAREIGAQLRRMADDLNAQYERRRQEEQHRHRPSPWRVMYNLFMGLLPLPRDPGAPEMEPN
notes: also called induced PUMA
Question: Which “interaction with HA-tagged VDAC2 (co-immunoprecipitation)” value [6] does the source give for B3 here?
Answer: stable interaction

Question: Does B3 bind [7]?
Answer: binds

B4: N-terminal HA-tagged BAK (other, murine, UniProt O08734 1-209, looked up)
chain: MASGQGPGPPKVGCDESPSPSEQQVAQDTEEVFRSYVFYLHQQEQETQGAAAPANPEMDNLPLEPNSILGQVGRQLALIGDDINRRYDTEFQNLLEQLQPTAGNAYELFTKIASSLFKSGISWGRVVALLGFGYRLALYVYQRGLTGFLGQVTCFLADIILHHYIARWIAQRGGWVAALNFRRDPILTVMVIFGVVLLGQFVVHRFFRS
notes: also called HA-BAK; not shown: N-terminal HA tag
Question: Does B4 bind [8]?
Answer: no binding

B5: mutant Bak mBH3 (L75E) (other, murine, UniProt O08734 2-209, looked up)
chain: T4 sequence (O08734 2-209 limits assumed) with L75E
notes: also called BAK mutated within the BH3 domain (L75E)
Question: Does B5 bind [9]?
Answer: no binding

B6: HA-tagged VDAC2: N-terminal HA-tagged murine VDAC2, retrovirally expressed (protein)
chain: T1 sequence (looked up)
modifications: left off: small tags and cut ends
notes: N-terminal HA-tagged murine VDAC2, retrovirally expressed
Question: For B6, which “co-precipitation of endogenous BAK” value [10] is on record?
Answer: efficiently co-precipitated

Question: And the “co-precipitation of endogenous BAX” value [11]?
Answer: not
